Source: US20040072319A1, “Molecules that modulate ubiquintin-dependent proteolysis and methods for identifying same” (priority 2003, published 2004)
Square brackets hold non-standard residues; d marks the D form. Ends that are not written are not given here. Peptide text beside a SMILES is read from it. pS = N[C@@H](COP(=O)(O)O)C(=O)O

Legend:
Cdc4 [1] = biological target: T1, Cdc4 (Saccharomyces cerevisiae, UniProt P07834); assay: Capture of Cdc4 from baculovirus-infected insect cell lysates by biotinylated peptide; type: binding, yeast; conditions: insect cells infected with Cdc4 baculovirus
T1 construct: made in house; host or cells: Sf9 insect cells infected with recombinant baculovirus (crude lysate)
T1 sequence (P07834 whole entry, looked up): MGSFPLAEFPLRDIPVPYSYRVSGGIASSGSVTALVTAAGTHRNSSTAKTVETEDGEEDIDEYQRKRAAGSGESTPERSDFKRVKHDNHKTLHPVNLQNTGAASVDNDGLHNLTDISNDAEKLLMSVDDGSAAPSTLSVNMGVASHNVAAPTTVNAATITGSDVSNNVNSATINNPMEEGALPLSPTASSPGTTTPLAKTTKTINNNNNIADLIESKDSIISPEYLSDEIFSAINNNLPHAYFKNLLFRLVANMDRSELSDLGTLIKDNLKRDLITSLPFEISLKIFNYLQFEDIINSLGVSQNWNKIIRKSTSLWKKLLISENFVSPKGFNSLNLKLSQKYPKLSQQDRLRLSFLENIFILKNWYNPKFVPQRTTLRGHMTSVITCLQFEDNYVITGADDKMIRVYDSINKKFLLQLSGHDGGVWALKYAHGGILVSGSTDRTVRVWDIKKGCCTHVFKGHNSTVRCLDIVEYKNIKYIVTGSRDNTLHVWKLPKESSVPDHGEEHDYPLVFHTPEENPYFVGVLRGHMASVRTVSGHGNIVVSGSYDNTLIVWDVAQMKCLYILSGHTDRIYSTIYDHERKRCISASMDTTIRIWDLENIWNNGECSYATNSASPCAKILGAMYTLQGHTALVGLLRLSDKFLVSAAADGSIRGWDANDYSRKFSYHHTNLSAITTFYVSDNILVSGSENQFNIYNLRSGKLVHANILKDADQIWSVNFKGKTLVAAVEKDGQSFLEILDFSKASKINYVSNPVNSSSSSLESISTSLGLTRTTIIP
Source text: (§1) SCF complexes were purified from SF9 cells infected with recombinant baculoviruses and used in binding assays and ubiquitination reactions essentially as described (7). Gst-Skp1 expressed in BL21 codon plus cells (Stratagene) then purified on glutathione resin was used to capture full Cdc4 from insect cell lysates. Truncated forms of Cdc4 were enriched prior to Gst-Skp1 capture by affinity purification of hexahistidine fusion proteins on a metal chelate column. The Skp1-Cdc4 complexes were released from the Gst moiety by cleavage with TEV protease and further purified by size exclusion chromatography on a Superdex S75 or S200 column. Biotin labeled […]p[…] (SEQ ID NO. 1), […] (SEQ ID NO. 12), and APPLSQEpTFSDLWK (SEQ ID NO. 13) were synthesized by addition of d-biotin (Sigma) with an Fmoc-e-aminocaproic acid (Bachem) spacer to carboxy-terminal peptides. […] Streptavidin-agarose beads (Sigma) were incubated in the presence of biotinylated peptide for 90 min. at 4° C. Beads were washed 3 times and then incubated with lysates from Cdc4 expressing baculovirus infected Sf9 cells. Beads were washed 4 times, after which SDS-PAGE gel loading buffer was added and the beads were boiled for 5 min. Proteins were separated by SDS-PAGE and visualized by silver stain. […]

Skp1-Cdc4 complex = biological target: T2, Skp1-Cdc4 complex (yeast, UniProt P07834 1-779; P52286 1-194, limits assumed); assay: fluorescence polarization, 5 nM fluorescein-labeled peptide, Cdc4/Skp1 titrated
T2 construct: Purified complex (Gst removed by TEV, size exclusion) for fluorescence polarization and SPOTS arrays; also called Cdc4/Skp1; cdc4/skp1 complex

Cdc4 [2] = biological target: T3, Cdc4 (Saccharomyces cerevisiae, UniProt P07834); assay: Fluorescence polarization equilibrium binding of peptides to Cdc4; parameters: made in house; host or cells: Cdc4: baculovirus-infected insect (Sf9) cells; Gst-Skp1: E. coli BL21 codon plus; species or system yeast
Experimental: Equilibrium binding constant determination was carried out using fluorescence polarization on a Beacon 2000 Fluorescence Polarization System (Pan Vera, Wis.) equipped with a 100 μL sample chamber. Fluorescein-labeled probes were prepared through the reaction of carboxyterminal-peptides with 5-(and-6)-carboxyfluorescein succinimidyl ester (Molecular Probes), purified by reverse-phase HPLC, and confirmed by mass spectrometry. Binding studies were conducted with 5 nM fluorescein-labeled probe dissolved in PBS containing 100 μg/ml BSA and 1 mM dithiothreitol. Reaction mixtures were allowed to equilibrate for 10 minutes at room temperature prior to each measurement. All fluorescence polarization measurements were conducted at 22° C.
Target sequence in this assay (P52286 whole entry partner, one chain of several): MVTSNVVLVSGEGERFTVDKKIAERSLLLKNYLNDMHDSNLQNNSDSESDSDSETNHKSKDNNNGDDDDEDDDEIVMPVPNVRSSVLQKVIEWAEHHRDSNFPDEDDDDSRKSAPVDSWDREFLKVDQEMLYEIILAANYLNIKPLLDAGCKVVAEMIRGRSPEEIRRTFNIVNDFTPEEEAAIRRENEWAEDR

Cdc4-Skp1 complexes = biological target: T4, Cdc4-Skp1 complexes (Saccharomyces cerevisiae, UniProt P07834); assay: Peptide out-competition of phosphorylated substrates binding to Cdc4-Skp1; parameters: species or system yeast; conditions: peptide 3, 17, 68 μM in FIG. 6f
T4 construct: made in house; host or cells: insect cells (baculovirus)
Source text: (§2) SCF complexes were purified from SF9 cells infected with recombinant baculoviruses and used in binding assays and ubiquitination reactions essentially as described (7). Gst-Skp1 expressed in BL21 codon plus cells (Stratagene) then purified on glutathione resin was used to capture full Cdc4 from insect cell lysates. Truncated forms of Cdc4 were enriched prior to Gst-Skp1 capture by affinity purification of hexahistidine fusion proteins on a metal chelate column. The Skp1-Cdc4 complexes were released from the Gst moiety by cleavage with TEV protease and further purified by size exclusion chromatography on a Superdex S75 or S200 column. Biotin labeled […]p[…] (SEQ ID NO. 1), […] (SEQ ID NO. 12), and APPLSQEpTFSDLWK (SEQ ID NO. 13) were synthesized by addition of d-biotin (Sigma) with an Fmoc-e-aminocaproic acid (Bachem) spacer to carboxy-terminal peptides. […] Streptavidin-agarose beads (Sigma) were incubated in the presence of biotinylated peptide for 90 min. at 4° C. Beads were washed 3 times and then incubated with lysates from Cdc4 expressing baculovirus infected Sf9 cells. Beads were washed 4 times, after which SDS-PAGE gel loading buffer was added and the beads were boiled for 5 min. Proteins were separated by SDS-PAGE and visualized by silver stain. Peptide out-competition of phosphorylated substrates was carried out with immunopurified Skp1^FLAG-Cdc4 from insect cells, which were incubated with phosphopeptides prior to addition of phospho-Sic1 or phospho-Cyclin E-Cdk2. For kinase inhibition assays, purified recombinant Clb5-Cdc28 complex (30 ng) was incubated with mutant forms of Sic1 (40 ng) and histone H1 (HH1, 2 μg) for 1 h on ice prior to addition of [^32P]-γ-ATP and incubation at 25° C. for 30 min. Samples were separated by SDS-PAGE and visualized by autoradiography.

Cdc4 [3] = biological target: T3, Cdc4; assay: Capture of Cdc4 from baculovirus-infected insect cell lysates by biotinylated peptide; type: binding, yeast; parameters: made in house; host or cells: Sf9 insect cells infected with recombinant baculovirus (crude lysate); conditions: insect cells infected with Cdc4 baculovirus
Source text: as §2

SCFcdc4 = biological target: T5, SCFcdc4 (Saccharomyces cerevisiae, UniProt P07834); assay: In vitro ubiquitination of substrates by SCFcdc4 in presence of peptide; type: biochemical, yeast; conditions: excess peptide
T5 construct: made in house; host or cells: SF9 cells infected with recombinant baculoviruses
Source text: as §1

T2 sequence (P52286 whole entry, chain 2 of 2, one chain of several): as the sequence (P52286 whole entry partner, one chain of several) above
T4 sequence (P52286 whole entry partner, one chain of several): as above
T5 sequence (P52286 whole entry partner, one chain of several): as above
T5 sequence (Q12018 whole entry partner, one chain of several): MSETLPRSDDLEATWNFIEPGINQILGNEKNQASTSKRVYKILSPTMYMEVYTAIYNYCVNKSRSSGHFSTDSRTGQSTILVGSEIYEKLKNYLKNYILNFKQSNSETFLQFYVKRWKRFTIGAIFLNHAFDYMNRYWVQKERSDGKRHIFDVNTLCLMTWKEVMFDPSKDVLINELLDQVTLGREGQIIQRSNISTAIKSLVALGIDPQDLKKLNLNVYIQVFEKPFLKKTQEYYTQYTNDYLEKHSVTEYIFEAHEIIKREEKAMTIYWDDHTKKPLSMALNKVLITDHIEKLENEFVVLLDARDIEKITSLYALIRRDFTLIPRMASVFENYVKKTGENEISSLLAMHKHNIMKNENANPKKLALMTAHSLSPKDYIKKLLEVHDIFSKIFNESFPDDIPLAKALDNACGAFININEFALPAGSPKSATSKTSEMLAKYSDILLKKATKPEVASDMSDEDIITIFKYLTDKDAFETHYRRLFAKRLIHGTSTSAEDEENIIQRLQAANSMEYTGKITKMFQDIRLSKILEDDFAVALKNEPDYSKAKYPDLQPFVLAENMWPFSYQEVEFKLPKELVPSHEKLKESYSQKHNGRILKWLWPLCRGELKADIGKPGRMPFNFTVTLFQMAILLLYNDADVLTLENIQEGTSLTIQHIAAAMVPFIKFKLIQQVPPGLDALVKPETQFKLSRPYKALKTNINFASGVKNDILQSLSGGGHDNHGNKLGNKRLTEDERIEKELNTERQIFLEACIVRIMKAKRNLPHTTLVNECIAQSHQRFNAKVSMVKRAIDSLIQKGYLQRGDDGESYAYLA

## ASPLPSGLLTPPQSGKKQS [unphosphorylated peptide, biotin labeled unphosphorylated cyclin E1 19 residue control peptide, reference compound]
Cdc4 [1]; listed as non-phosphorylated CycE^19-pT380 peptide
  capture of Cdc4 from lysates by biotinylated peptide: does not
Cdc4 [1]; listed as unphosphorylated version of the peptide
  capture of Cdc4 from lysates by biotinylated peptide: failed to interact with cdc4

## CycE-5mer LLpTPP (peptide)
Skp1-Cdc4 complex
  Kd: 0.85 µM

## CycEK-1-9mer GLKpTPPQSG (peptide)
Skp1-Cdc4 complex
  Kd: 6 µM

## CycEK-2-9mer GKLpTPPQSG (peptide)
Skp1-Cdc4 complex
  Kd: 12 µM

## Sic1 15-pT45: Sic1 phosphopeptide centered on pT45; possibly the SicpT45 peptide of Table 1
Cdc4 [2]
  binding to Cdc4 (in words): does not measurably bind Cdc4
Cdc4-Skp1 complexes
  competition with substrates (Sic1, cyclin E1, Far1) for binding to Cdc4: does not measurably bind Cdc4 or compete with substrates

## CycEK5-9mer GLLpTPPQSK (peptide)
Skp1-Cdc4 complex
  Kd: 2.4 µM

## PKPLNLSKPIpSPPPSLKKTA (PKPLNLSKPI[pS]PPPSLKKTA) [Far 1 pS87]
Cdc4 [2]
  binding to Cdc4 (in words): could neither bind stably to Cdc4
Cdc4-Skp1 complexes
  competition with substrates (Sic1, cyclin E1, Far1) for binding to Cdc4: nor block the interaction

## CycEK4-9mer GLLpTPPQKG (peptide)
Skp1-Cdc4 complex
  Kd: 4.3 µM

## CycEK2-9mer GLLpTPKQSG (peptide)
Skp1-Cdc4 complex
  Kd: 6.3 µM

## CC(C)C[C@H](NC(=O)CNC(=O)[C@H](CO)NC(=O)[C@@H]1CCCN1C(=O)[C@H](CC(C)C)NC(=O)[C@@H]1CCCN1C(=O)[C@H](CO)NC(=O)[C@H](C)N)C(=O)N[C@@H](CC(C)C)C(=O)N[C@H](C(=O)N1CCC[C@H]1C(=O)N1CCC[C@H]1C(=O)N[C@@H](CCC(N)=O)C(=O)N[C@@H](CO)C(=O)NCC(=O)N[C@@H](CCCCN)C(=O)N[C@@H](CCCCN)C(=O)N[C@@H](CCC(N)=O)C(=O)N[C@@H](CO)C(=O)O)[C@@H](C)OP(=O)(O)O [CycE-19mer, ASPLPSGLLpTPPQSGKKQS] (HELM PEPTIDE1{A.S.P.L.P.S.G.L.L.[C[C@@H](OP(=O)(O)O)[C@H](N[*:1])C(=O)[*:2]].P.P.Q.S.G.K.K.Q.S}$$$$V2.0)
Cdc4 [3]; listed as CycE19-pT380
  capture of Cdc4 from lysates by biotinylated peptide: able to capture Cdc4
Cdc4 [3]; listed as CycE^19-pT380
  capture of Cdc4 from lysates by biotinylated peptide: captures recombinant Cdc4
Cdc4 [3]; listed as cycE19P
  capture of Cdc4 from lysates by biotinylated peptide: capture of Cdc4
Cdc4 [3]; listed as cycEpT19mer
  capture of Cdc4 from lysates by biotinylated peptide: able to precipitate cdc4
Cdc4 [2]; Hill plot of peptide binding to Cdc4
  Hill coefficient: 0.99
Cdc4-Skp1 complexes; listed as CycE19-pT380
  competition with substrates (Sic1, cyclin E1, Far1) for binding to Cdc4: able to out-compete
Cdc4-Skp1 complexes; listed as CycE^19-pT380
  competition with substrates (Sic1, cyclin E1, Far1) for binding to Cdc4: out-competes binding of Sic1 and cyclin E1
Cdc4-Skp1 complexes; listed as cycE19P
  competition with substrates (Sic1, cyclin E1, Far1) for binding to Cdc4: able to compete
Cdc4-Skp1 complexes; listed as cycEpT
  competition with substrates (Sic1, cyclin E1, Far1) for binding to Cdc4: inhibits the interaction
Cdc4-Skp1 complexes; listed as cyclin E phosphopeptide
  competition with substrates (Sic1, cyclin E1, Far1) for binding to Cdc4: competed
SCFcdc4; listed as CycE19-pT380
  block of ubiquitination of SCFcdc4 substrates: able to out-compete
SCFcdc4; listed as cycE19P
  block of ubiquitination of SCFcdc4 substrates: blocked
